Experimental data: US7795390B2, “Biological substance nesfatin and its related substances and uses thereof” (Teijin Pharma Limited, priority 2005, dated 2010)

Legend:
Zucker fa/fa rats = assay: nesfatin-1 administration into the third ventricle of Zucker fa/fa rats, food intake; type: in vivo, rat; conditions: recombinant mouse nesfatin-1 5 pmol
Description: (§1) As rats, 8 week-old male Zucker fa/fa (Zucker) rats and Zucker +/+(Lean) rats as the control animal were purchased from Nippon Charles River, and were housed in a cycle of 12 hours of the light period from 6 a.m. to 6 p.m. and 12 hours of the dark period from 6 p.m. to 6 a.m. the next morning and fed a powder food (Nippon Clea, CE-2), and kept at 22° C., and throughout the experiment period, a similar condition was continued in housing. After preliminary housing of the purchased rats for over one week, individuals weighing 200-250 g were selected from among 9 to 10 week-old individuals.
(§2) The sample used for administration was one in which the recombinant mouse nesfatin-1 prepared in Working Example 16 was dissolved to 5 pmol in 5 μl of PBS, and as the control sample physiological saline (Saline) was used. Five μl of the samples prepared were administered into the third ventricle of each rat for the group of five each of Zucker rats and the Lean rats per group (the Zucker/nesfatin-1 group, the Lean/nesfatin-1 group, the Zucker/Saline group, the Lean/Saline group). […]
(§3) After intraventricular administration, the amount of food intake was determined by measuring the amount decreased of the powder food for each rat during 0-1 hour, 1-3 hours and 3-6 hours. […]

C57BL/6J mice = assay: Intraperitoneal administration of nesfatin-1 to c57BL/6J mice, food intake and blood biochemical parameters; type: in vivo; conditions: recombinant mouse nesfatin-1 10 nmol ip; 0-3 hours; vs saline
Description: As experimental animals, 7 week-old male c57BL/6J mice were purchased from Nippon Clea, and were housed in a cycle of 12 hours of the light period from 6 a.m. to 6 p.m. and […] of the dark period from 6 p.m. to 6 a.m. the next morning and were allowed free access to a pellet food (Nippon Clea, CE-2), and kept at 22° C.
Into the abdominal cavity of the c57BL/6J mice, 10 nmol of recombinant mouse nesfatin-1 prepared in Working Example 16 dissolved in 100 μl of physiological saline was administered, and as the control sample physiological saline alone was used. Using a tuberculin syringe equipped with a 26G needle, 100 μl each of the sample was administered once into the abdominal cavity of each mouse (5 animals per group), and the time of administration was immediately before the start (6 p.m.) of the dark period.
Each mouse that received administration was placed in an individual cage, and during 0-3 hours after the administration the weight decreased of the pellet food was measured to determine the amount of food intake. Also, 3 hours after the administration each mouse was sacrificed by decapitation to collect whole blood, and serum was collected therefrom. For the serum, the contents of glucose, total cholesterol and triglyceride were measured using commercial reagents for determination (KYOWA MEDEX, Determiner L GLUII, Determiner L TCII, Determiner L TGII).

mice = assay: Intraperitoneal and subcutaneous administration of nesfatin-1 to mice, food intake; type: in vivo, mouse
Description: The sample used in the administration was the recombinant mouse nesfatin-1 prepared in Working Example 16 dissolved in 200 μl of physiological saline so as to contain 10 nmol, and as the control sample, physiological saline (Saline) alone was used. Using a tuberculin syringe equipped with a 25G needle, 200 μl each of the samples was administered once into the abdominal cavity or the hypodermis of the back of each mouse, and the time of administration was immediately before the start (6 p.m.) of the dark period. Other conditions were similar to those in Working Example 18.

rats = assay: Continuous administration of nesfatin-1 into the rat ventricle, weight of adipose tissue; type: in vivo; conditions: 5 pmol per day, third ventricle, 10 days; vs saline
Description: Nesfatin-1 (5 pmol per day) or physiological saline alone (the control group) was administered into the third ventricle of a rat using an osmotic pump for 10 consecutive days (5 and 4 rats were used per group). Intraventricular administration into rats by the osmotic pump was carried out in a manner similar to that in Working Example 13.
After the administration of nesfatin-1 or physiological saline alone for 10 days, each rat was sacrificed, dissected to excise all of the abdominal subcutaneous adipose tissue, the epididymal adipose tissue (these are white adipose tissue) and the retroperitoneal brown adipose tissue, and the weight of them was measured. Also, the gastrocnemial muscles of the bilateral hind legs were harvested and the weight of them was measured. From the weight of the tissues measured, their ratio to the body weight of each individual was determined (tissue weight/body weight, mg/g). For testing of significant difference, analysis of variance was used.

Wistar rats = assay: Intraventricular continuous administration of nesfatin-1 by osmotic pump, food intake and body weight; type: in vivo, rat
Description: The administration of nesfatin-1 was carried out into the ventricle by an osmotic pump for 10 consecutive days. Among 8 week-old male Wistar rats (purchased from Nippon SLC), those individuals weighing 200-250 g were used. The rats received intraperitoneal administration of 40 mg/kg body weight of pentobarbital sodium for anesthesia. After the hair was removed from the head, they were fixed in a brain stereotaxic apparatus (David Kopf Instruments, Model 962) and the scalp was incised and a 23G needle (guide cannula) was implanted so that the tip reaches the third ventricle (2.5 mm behind the bregma, 9.5 mm from the surface). One week after implanting the guide cannula, the animals were subjected to the experiment. The osmotic pump used was Alzet's Model 2002. Nesfatin-1 (nesfatin-1 administration group) dissolved in physiological saline that was filter-sterilized with a 0.22 μm Millex GV filter (Millpore Co. Ltd.), or sterilized physiological saline alone (control group) were injected into the osmotic pump immediately before use, and were primed in sterilized physiological saline from the day before use. The osmotic pump to which each sample was connected to a tube connected to the injection cannula, and through the guide cannula previously implanted the injection cannula was fixed so that the tip of the cannula reaches the third ventricle of the rat. In this form of use, the sample is injected to the third ventricle at a flow rate of 12 μl per 24 hours, and in the nesfatin-1 administration group, it is equivalent to 5 pmol of nesfatin-1 per day administered to the ventricle. […] The measurement of the amount of food intake started from the day after the cannula and the osmotic pump were implanted, and the weight of the residual food was measured at 9 a.m. every day, and by determining the difference from the weight of the food on the previous day, the amount of food intake of the day (24 hours) was calculated. From day 6 after the start of administration, body weight was measured at the time of measuring the amount of food intake, and changes in body weight were also recorded.

Zucker +/+ (Lean) rats = assay: nesfatin-1 administration into the third ventricle of Zucker +/+ (Lean) rats, food intake; type: in vivo, rat; conditions: recombinant mouse nesfatin-1 5 pmol
Description: as §1, §2, §3

[1] = 0-1 hour and 1-3 hours, P<0.001 vs Saline
[2] = 5 pmol per day, osmotic pump, third ventricle, 10 consecutive days, vs saline

B1: nesfatin-1: 82-residue peptide, amino acid Nos. 25 to 106 of nesfatin (SEQ ID NO: 15), solid-phase synthesis (peptide, listed as Rattus norvegicus)
chain: VPIDVDKTKVHNVEPVESARIEPPDTGLYYDEYLKQVIEVLETDPHFREKLQKADIEEIRSGRLSQELDLVSHKVRTRLDEL
In the case of B1, the “amount of food intake” value (Zucker fa/fa rats; [1]) is reported as “significant reduction”, the “amount of food intake” value (Zucker fa/fa rats; 3-6 hours, P<0.05) is reported as “significant reduction” and the “amount of food intake” value (C57BL/6J mice) is reported as “significantly reduced”. The “amount of food intake” value (mice; 10 nmol intraperitoneally (ip), 0-3 hours, P<0.05 vs saline) was “statistically significant decrease”, the “amount of food intake” value (mice; 10 nmol intraperitoneally (ip), 0-14 hours) was “the decrease in the amount of food intake was not significant” and the “amount of food intake” value (mice; 10 nmol subcutaneously (sc), 0-3 hours) was “tended to decrease”. For the same molecule, the “amount of food intake” value (mice; 10 nmol subcutaneously (sc), 0-14 hours, P<0.005 vs saline) was “the decrease was significant”, the “ratio of tissue weight to body weight, abdominal subcutaneous adipose tissue” value (rats) was “significant decreases” and the “ratio of tissue weight to body weight, brown adipose tissue” value (rats) was “no significant difference”. For the same molecule, the “ratio of tissue weight to body weight, epididymal adipose tissue” value (rats) was “significant decreases”, the “ratio of tissue weight to body weight, gastrocnemial muscle” value (rats) was “no significant difference” and the “ratio of tissue weight to body weight, mesenteric adipose tissue” value (rats) was “significant decreases”. The “ratio of tissue weight to body weight, retroperitoneal adipose tissue” value (rats) was “tended to decrease but no significant difference”, the “amount of food intake of the day (24 hours)” value (Wistar rats; [2]) was “a decrease in the amount of food intake was noted from day 1” and the “rate of increase in body weight” value (Wistar rats; [2]) was “significantly declined”. For the same molecule, the “food intake and/or body weight gain” value (Wistar rats; recombinant highly purified nesfatin-1 (Working Example 16), intraventricular as in Working Example 13) was “the effect of suppressing food intake and/or suppressing body weight gain was noted”, the “amount of food intake” value (Zucker +/+ (Lean) rats; [1]) was “decreased” and the “amount of food intake” value (Zucker +/+ (Lean) rats; 3-6 hours) was “No difference”.
